B1: TPR t1 (parent)
chain: GACCAAUCUGCCCUCAGAGCUCGAGAACAUCUUCGGAUGCAGAGGAGGCAGGCUUCGGUGGCGCGAUAGCGCCAACGUCCUCAACCUCCAAUGCAUCCCACCACAUGAUGAUGCCUGAAGAGCCUUGGUUUUUUG

Variants of: B1
Assay: polymerase ribozyme fitness, log enrichment relative to wild type (log ratio); higher = more active; in vitro selection for triplet polymerase activity
Summary of the method: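 Only genotypes with ≥10 input reads and ≥1 read per output were kept after Illumina sequencing of input and output libraries. These libraries were PCR-built, transcribed mutants of each subunit of a heterodimeric triplet polymerase ribozyme, each put through one triplicate in vitro selection round with frozen incubation at −7 °C, gel excision of extended constructs, streptavidin-bead capture and RT-PCR. Fitness is a logarithmic ratio of genotype enrichment to wild-type enrichment, from inverse-variance-weighted replicate averages, with the logarithm in base 2.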

Variant | polymerase ribozyme fitness (log ratio)
GACCAAUCUGCCCUCAGAGCUCGAGAACAUCUUGGGAUGCAGAGGAGGCAGGCUUCGGUGGCGCGAUAGCGCCAACGUCCUCAACCUCCAAUGCAUCCCACCACAUGAUGAUGCCUGAAGAGCAUUGGUUUUUUG [C34G C124A] | -3.61
GACCAAUCUGCCCUCAGAGCUCGAGAACAUCUUGGGAUGCAGAGGAGGCAGGCUUCGGUGGCGCGAUAGCGCCAACGUCCUCAACCUCCAAUGCAUCCCACCACAUGAUGAUGCCUGAAGAGCUUUGGUUUUUUG [C34G C124U] | -4.28
GACCAAUCUGCCCUCAGAGCUCGAGAACAUCUUGGGAUGCAGAGGAGGCAGGCUUCGGUGGCGCGAUAGCGCCAACGUCCUCAACCUCCAAUGCAUCCCACCACAUAAUGAUGCCUGAAGAGCCUUGGUUUUUUG [C34G G107A] | -7.98
GACCAAUCUGCCCUCAGAGCUCGAGAACAUCUUGGGAAGCAGAGGAGACAGGUUUCGGUGGCGCGAUAGCGCCAACGUCCUCAACCUCCAAUGCAUCCCACCACAUGAUGUUGCCUGAAGAGCCUUGGUUUUUUG [C34G U38A G48A C53U A111U] | -6
GACCAAUCUGCCCUCAGAGCUCGAGAACAUCUUGGGAUGCAGAUGAGGCAGGCUUCGGUGGUGCGAUAGCGCCAACAUCCUCAACCUCCAAUGCAUCCCACCACAUGAUCAUGCCUGAAGAGCCUUGGUUUUUUG [C34G G44U C62U G77A G110C] | -6.64
GACCAAUCUGCCCUCAGAGCUCGAGAACAUCUUGGGAUGCAGAGGAGGCAGGCUUCGGUGGCGCGAUAGCGCUAACGUCCUCAACCUCCAAUGCAUCCCACCACAUGAUGAUGCCUGAAGAGCCUUGGUUUUUUG [C34G C73U] | -5.17
GACCAAUCUGCCCUCAGAGCUCGAGAACAUCUUGGGAUGCAGAGGAGGCAGGCUUCGGUGGCCCGAUAGCGCCAACGUCCUCAACCUCCAAUGCAUCCCACCACAUGAUGAUGCCUGAAGAGCCUUGGUUUUUUG [C34G G63C] | -6.66
GACCAAUCUGCCCUCAGAGCUCGAGAACAUCUUGGGAUGCAGAGGAGGCAGGCUUCGGUGGCGCGAUAGCGCUAACGUCCUCAACCUCCAAUGCAUCCCACCAGAUGAUGAUGCCCGAAGCUCCUUGGUUUUUUG [C34G C73U C104G U116C A121C G122U] | -6.01
GACCAAUCUGCCCUCAGAGCUCGAGAACAUCUUGGGAUGCAGAGGAUGCAGGCUGCGGUGCCCCGAUAGCGCCAACGUCUUCAACCUCCAAUGCAUCCCACCACAUGAUGAUGCCUGAAGAGCCUUGGUUUUUUG [C34G G47U U55G G61C G63C C80U] | -7.69
GACCAAUCUGCCCUCAGAGCUCGAGAACAUCUUGGAAUGCAGAGGAGGCAGGCUUCGGUGGCGCGAUAGCGCCAACGUCCUCAACCUCCAAUGCAACCCACCACAUGAUGAUGCCUGAAGAGCUUUGGUUUUUUG [C34G G36A U96A C124U] | -6.45
GACCAAUCUGCCCUCAGAGCUCGAGAACAUCUUGGGAUGCAGAGGAGGCAGGCUUCGGUGGCGCGAUAGCGCCAACGUCCUUAACCUCCAAUGCAUCCCACCACAUGAUGAUGCCUGAAGAGCCUUGGUUUUUUG [C34G C82U] | -6.19
GACCAAUCUGCCCUCAGAGCUCGAGAACAUCUUGGGAUGCAGAGGAGGCAGGCGUCGGUGGCGCGAUAUCGCCAACGUCCUCAACCUCCAAUGCAUCCCACCACAUGAUGAUGCCUGAAGAGCCUUGGUUUUUUG [C34G U54G G69U] | -5.25
GACCAAUCUGCCCUCAGAGCUCGAGAACAUCUUGGGAUGCAGAGGAGGUAGGCUUCGGUGGCGCGAUAGCGCCAACGUCCUCAACCUCCAAUGCAUUCCACCACAUGAUGAUGGCUGAAGAGCCUUGGUUUUUUG [C34G C49U C97U C114G] | -7.24
GACCAAUCUGCCCUCAGAGCUCGAGAACAUCUUGGGAUGCAGAGGAGGCAGGCUUCGGUGGCGCGAUAGCGCCAACGUCCUCAACCUCCAAUGCAUCCCACCACAUGAUGAAGCCUGAAGAGCCUUGGUUUUUUG [C34G U112A] | -4.47
GACCAAUCUGCCCUCAGAGCUCGAGAACAUCUUGGGAUGCAGAAGAGGCAGGCUUCGGUGGCGCGAUAGCGCCAACGUCCUCAACCUCCAAUGCAUCCCACCACAUGAUGAUGCCUGAAGAGCCUUGGUUUUUUG [C34G G44A] | -6.88
GACCAAUCUGCCCUCAGAGCUCGAGAACAUCUUGGGAUGCAGAGGAGGCAGGCUUCGGUGGCGCGAUAGCGCCAACGUCCUCAACCUCCAAUGCAUCCCACCACAUGAUGAUGCCUCAAGAGCAUUGGUUUUUUG [C34G G117C C124A] | -6.44
GACCAAUCUGCCCUCAGAGCUCGAGAACAUCUUUGGAUGCGGAGGAGGCAGGCUUUGGUGGCCCGAUAGCGCCAACGUCCUCAACCUCAAAUGCUUCCCACCAGAUGAUAAUGCCUGAAGAGCCUUGGUUUUUUG [C34U A41G C56U G63C C89A A95U C104G G110A] | -5.19
GACCAAUCUGCCCUCAGAGCUCGAGAACAUCUUGGGAUGCAGAGGAGGCAGGCUUCGGUGGCGCGAUAGCGCAAACGUCCUCAACCUCCAAUGCAUCCCACCACAUGAUGAUGCCAGAAGUGCCUUGGUUUUUUG [C34G C73A U116A A121U] | -4.42
GACCAAUCUGCCCUCAGAGCUCGAGAACAUCUUGGGAUGCAGAGGAGGCAGGCUUCGGUGGCGCGAUAGCGCCAACGUCCUCCACCUCCAAUGCAUCCCACCACAUGAUGAUGCCUGAAGAGCCUUGGUUUUUUG [C34G A83C] | -4.9
GACCAAUCUGCCCUCAGAGCUCGAGAACAUCUUUGGAUGCAGAGGAGGCCGGCUUCGGUGGCGCGAUAGGGCCAACGUGCUCAACCUCAAAUGCAUCCCACGACAUGAUGAUGCCUGAAGAGCUUUGGUUUUUUG [C34U A50C C70G C79G C89A C102G C124U] | -6.39
GACCAAUCUGCCCUCAGAGCUCGAGAACAUCUUGGGAUGCAGAGGAGGCAGGCUUCGGUGGCGCGACAGCGCCAACGUCCUCAACCUCCAAUGCAUCCCACCGCAUCAUGAUGCCCGAAGAGGCUUGGUUUUUUG [C34G U67C A103G G107C U116C C123G] | -7.28
